The values below are quoted from earlier work in paper PMC5497954.

The Kd is the free concentration of one partner at which half of the binding sites on the other are occupied at equilibrium, for simple one-to-one binding.

In this data set the target is IL2Rβγ (Homo sapiens) (UniProt P14784).
Chain of UniProt P14784 (P14784 27-240, chain 1 of 2): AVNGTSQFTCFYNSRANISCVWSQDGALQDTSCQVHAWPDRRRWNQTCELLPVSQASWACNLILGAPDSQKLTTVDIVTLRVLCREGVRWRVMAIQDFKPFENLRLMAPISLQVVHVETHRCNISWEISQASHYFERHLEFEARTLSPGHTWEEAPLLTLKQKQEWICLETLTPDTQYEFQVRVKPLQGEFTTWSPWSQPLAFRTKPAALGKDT
Chain of UniProt P14784 (P31785 23-262, chain 2 of 2, further chain): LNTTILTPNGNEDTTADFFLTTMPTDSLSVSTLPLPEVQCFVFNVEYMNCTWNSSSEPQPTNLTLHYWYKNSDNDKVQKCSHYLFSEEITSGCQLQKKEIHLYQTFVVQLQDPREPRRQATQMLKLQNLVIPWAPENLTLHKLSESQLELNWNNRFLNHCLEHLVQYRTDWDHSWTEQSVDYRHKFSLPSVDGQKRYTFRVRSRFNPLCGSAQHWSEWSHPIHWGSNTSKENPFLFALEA

For IL2 (from UniProt P60568), the Kd is 1 nM.
